B1: Protein Z-dependent protease inhibitor (Homo sapiens), Q9UK55 (parent)
chain: MKVVPSLLLSVLLAQVWLVPGLAPSPQSPETPAPQNQTSRVVQAPKEEEEDEQEASEEKASEEEKAWLMASRQQLAKETSNFGFSLLRKISMRHDGNMVFSPFGMSLAMTGLMLGATGPTETQIKRGLHLQALKPTKPGLLPSLFKGLRETLSRNLELGLTQGSFAFIHKDFDVKETFFNLSKRYFDTECVPMNFRNASQAKRLMNHYINKETRGKIPKLFDEINPETKLILVDYILFKGKWLTPFDPVFTEVDTFHLDKYKTIKVPMMYGAGKFASTFDKNFRCHVLKLPYQGNATMLVVLMEKMGDHLALEDYLTTDLVETWLRNMKTRNMEVFFPKFKLDQKYEMHELLRQMGIRRIFSPFADLSELSATGRNLQVSRVLQRTVIEVDERGTEAVAGILSEITAYSMPPVIKVDRPFHFMIYEETSGMLLFLGRVVNPTLL

Key:
proz_human PROZ, P22891 [1] = variants of: B1; details: with proz_human PROZ
Sequence of proz_human PROZ, P22891 (P22891 whole entry): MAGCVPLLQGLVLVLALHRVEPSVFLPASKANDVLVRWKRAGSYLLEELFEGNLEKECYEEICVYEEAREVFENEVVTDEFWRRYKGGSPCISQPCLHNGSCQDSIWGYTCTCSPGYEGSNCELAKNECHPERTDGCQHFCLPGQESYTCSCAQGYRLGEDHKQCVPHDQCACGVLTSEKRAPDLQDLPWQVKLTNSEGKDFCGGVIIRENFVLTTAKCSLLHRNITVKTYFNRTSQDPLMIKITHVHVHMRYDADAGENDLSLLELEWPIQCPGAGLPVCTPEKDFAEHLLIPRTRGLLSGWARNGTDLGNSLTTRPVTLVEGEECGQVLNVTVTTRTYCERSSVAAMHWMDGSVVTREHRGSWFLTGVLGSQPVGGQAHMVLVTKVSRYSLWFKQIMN

proz_human PROZ, P22891 [2] = variants of: B1; details: with proz_human PROZ; remark: listed apart in the source
fa10_human F10, P00742 = variants of: B1; details: with fa10_human F10, P00742

effect of a mutation on the interaction (proz_human PROZ, P22891 [1])	effect of a mutation on the interaction (proz_human PROZ, P22891 [2])	effect of a mutation on the interaction (fa10_human F10, P00742)	Variant
disrupting interaction strength	disrupting interaction strength		D95A;D259A;K260A;E404A
		with no effect	D95A;D259A;K260A;D314A
with no effect		with no effect	E404A
with no effect		with no effect	E334A;E404A
		decreasing interaction strength	Y408R
with no effect		with no effect	E334A
